The target in test [1] is T1, Integrin alpha3/beta1 (human, UniProt P26006 33-1051; P05556 21-798).
T1 construct: also called α3β1
Nature of the test: immunoprecipitation from PC-3 membrane lysate with biotinylated Fab, mass spectrometry.
Method: PC-3 cell membranes (10⁸ cell equivalents/mL) in Nonidet P-40 Lysis Buffer (1% Nonidet P-40, 50 mM Tris.HCl pH 7.5, 0.15 M NaCl, 10% glycerol plus Complete Protease Inhibitors) were incubated with 50 μg/mL chicken egg white avidin for 30 min on ice. Insoluble material was removed by centrifugation for 30 min at 150,000 g. The lysate was precleared with normal rabbit serum and protein G Sepharose beads (Amersham-Pharmacia, Piscataway, N.J.). Antigens were captured by adding biotinylated Fabs (10 μg/mL) to the lysate and incubating overnight at 4° C. Immobilized streptavidin was added (50 μL of packed beads per mL) for 3 h at 4° C. with gentle mixing, followed by five washes with Nonidet P-40 Lysis Buffer. After SDS-PAGE separation, antigen bands were cut from the gel.

In test [2] the target is CUB-domain-containing protein 1 (CDCP1) (human) (UniProt Q9H5V8). Nature of the test: flow cytometry on PC-3 cells.

From US20080008719A1 (Alexion, published 2008) come the findings set out here.

T1 sequence (P26006 33-1051 limits assumed, chain 1 of 2): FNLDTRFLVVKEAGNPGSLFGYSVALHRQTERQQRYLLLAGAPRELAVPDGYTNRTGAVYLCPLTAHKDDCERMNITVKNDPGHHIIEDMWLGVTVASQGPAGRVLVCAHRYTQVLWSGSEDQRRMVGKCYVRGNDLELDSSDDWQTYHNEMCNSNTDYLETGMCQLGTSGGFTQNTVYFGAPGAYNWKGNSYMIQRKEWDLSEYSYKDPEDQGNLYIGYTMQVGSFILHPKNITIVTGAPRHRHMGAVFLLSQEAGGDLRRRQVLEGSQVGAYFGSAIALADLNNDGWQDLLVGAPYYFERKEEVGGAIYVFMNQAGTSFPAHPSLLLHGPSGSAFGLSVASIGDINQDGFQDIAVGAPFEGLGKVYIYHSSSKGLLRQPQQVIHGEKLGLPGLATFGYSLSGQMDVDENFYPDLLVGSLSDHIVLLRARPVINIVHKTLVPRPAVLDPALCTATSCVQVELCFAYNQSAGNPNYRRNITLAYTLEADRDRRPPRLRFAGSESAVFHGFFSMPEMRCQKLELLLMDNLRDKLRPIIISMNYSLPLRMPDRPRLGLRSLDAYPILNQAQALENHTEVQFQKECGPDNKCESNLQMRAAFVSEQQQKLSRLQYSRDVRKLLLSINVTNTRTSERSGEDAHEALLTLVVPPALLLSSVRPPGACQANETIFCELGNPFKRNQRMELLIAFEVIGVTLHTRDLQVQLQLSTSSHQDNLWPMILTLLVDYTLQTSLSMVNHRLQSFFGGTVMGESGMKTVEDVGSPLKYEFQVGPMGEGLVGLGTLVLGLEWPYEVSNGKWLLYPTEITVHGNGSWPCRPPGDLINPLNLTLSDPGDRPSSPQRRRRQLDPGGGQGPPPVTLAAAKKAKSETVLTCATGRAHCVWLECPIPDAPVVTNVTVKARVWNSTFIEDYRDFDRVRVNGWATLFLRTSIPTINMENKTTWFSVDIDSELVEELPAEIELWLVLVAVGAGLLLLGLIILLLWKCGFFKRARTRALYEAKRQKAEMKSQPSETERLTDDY
T1 sequence (P05556 21-798 limits assumed, chain 2 of 2): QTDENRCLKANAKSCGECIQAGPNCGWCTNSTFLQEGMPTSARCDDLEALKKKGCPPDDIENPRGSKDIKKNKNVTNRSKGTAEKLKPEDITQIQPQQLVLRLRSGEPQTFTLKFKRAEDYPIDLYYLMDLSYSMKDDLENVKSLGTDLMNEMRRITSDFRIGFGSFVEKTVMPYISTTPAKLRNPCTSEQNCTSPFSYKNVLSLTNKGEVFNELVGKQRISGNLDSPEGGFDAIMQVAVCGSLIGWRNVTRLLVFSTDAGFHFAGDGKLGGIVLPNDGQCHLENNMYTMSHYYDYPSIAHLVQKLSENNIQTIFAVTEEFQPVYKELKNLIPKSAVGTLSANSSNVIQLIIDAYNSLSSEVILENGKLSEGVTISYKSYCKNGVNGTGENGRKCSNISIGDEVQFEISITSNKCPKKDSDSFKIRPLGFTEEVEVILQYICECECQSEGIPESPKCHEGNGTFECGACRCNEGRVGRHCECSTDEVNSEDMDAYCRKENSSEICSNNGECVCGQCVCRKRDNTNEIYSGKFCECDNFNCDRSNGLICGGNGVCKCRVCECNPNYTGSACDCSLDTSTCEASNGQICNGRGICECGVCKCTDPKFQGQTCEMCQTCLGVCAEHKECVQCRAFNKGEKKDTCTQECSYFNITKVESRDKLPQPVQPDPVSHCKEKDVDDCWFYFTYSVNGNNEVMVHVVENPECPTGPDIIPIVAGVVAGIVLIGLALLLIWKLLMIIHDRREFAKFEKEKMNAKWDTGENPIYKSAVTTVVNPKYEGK

B1: Fab 23E9 (Fab, V domains shown)
VH: EVELQQSGAELVKPGASVKLSCKASGYTFTNYYMHWVKQRPGQGLEWIGEINPSSGGTNFNEKFKSKATLTVDKSSSTAYMQLSSLTSEDSAVYYCTRFDRTENGMDYWGQGTSVTVSS
VL: DNVLTQSPASLAVSPGQRATISCKASQSVDYDGDNYMNWYQQKPGQPPKLLIYAASNLESGIPARFSGSGSGTDFTLNIHPVEEEDAATYFCQQSDEDPYTFGGGTKLEIKR
Consider B1, for which the binding result in test [1] was “binds”.

B2: Fab 61E10 (Fab, V domains shown)
VH: EVQLQQSGAELVKPGASVKLSCKASGYTFTNYYMHWVKQRPGQGLEWIGEINPSSGGTNFNEKFKSKATLTVDKSSSTAYMQLSSLTSEDSAVYYCTRFDRTENGLDYWGQGTSVTVSS
VL: DIVMTQSPASLAVSLGQRATISCKASQSVDYDGDNYMNWYQQKPGQPPKLLIYAASNLESGIPARFSGSGSGTDFTLNIHPVEEEDAATYYCQQSNGDPWTFGGGTKLEIKR
B2: the binding result in test [1] is on record as “binds”.

B3: Fab 84H7 (Fab, V domains shown)
VH: EVQLQQSGAVLLKPGASVKLSCTASGFNIKDTYIHWMKQRPEQGLEWIGRIDPADGNTKYDPKFQGKATITADTSSNTAYLQLSSLTSEDTAVYYCTTAFYYSMDYWGQGTSVTVSS
VL: DIVLTQSQKFMSTSVGDRVSVTCKASQNVGTNVAWYQQKPGQSPKALIYSASYRYSGVPDRFTGSGSGTDFTLTISNVQSEDLAEYFCQQYNSYPRTFGGGTKLEIKR
notes: also called 84H7 (63C10)
On to B3, for which, in test [1], the binding result is given as “binds”.

B4: Fab 36C1 (Fab, V domains shown)
VH: EVQLQQSGAELVKPGASVKLSCTASGFNIKDTYIHWMNQRPEQGLEWIGRIDPADGNTKYDPKFQDKATITADTSSNTAYLHLSSLTSEDTAVYYCTTAFYYSMDYWGQGTSVTVSS
VL: DIVMTQSQKFMSTSVGDRVSVTCKASQNVGTNVAWYQQTPGQSPKALIYSASYRYSGVPDRFTGSGSGTDFTLTINNVQSEDLAEYFCQQYNSYPRTFGGGTTLEIKR
With B4, in test [1], the binding result is reported as “binds”.

B5: Fab 25A11 (murine Fab) (Fab, V domains shown)
VH: EVQLQQPGAELVKPGASVKMSCKASGYTFTSYYMYWVKQRPGQGLEWIGEINPSHGGTNFNEKFKNKATLTVDKSSSTVYMQLSSLTSEDSAVYYCTRGGNYPYFAMDYWGQGTSVTVSS
VL: DIQMTQTTSSLSASLGDRVTISCRASQDISNYLNWYQQKPDGTVKLLIYYTSRLHSGVPSRFSGSGSGTDYSLTISNLEQEDIATYFCQQGNTLPWTFGGGTKLEIKR
In test [2], B5 registered a percent saturation of PC-3 cells at 160 nM Fab of 80%.
